{
  "source": "patent CN115850477A",
  "about": "(SUZHOU SHALI BIOTECHNOLOGY CO LTD, dated 2023)",
  "key": {"[1]": {"target": "Human 4-1BB/TNFRSF9 Protein, His Tag (ACRO Biosystems) (human) (UniProt Q07011)", "T1 sequence (Q07011 24-186 limits assumed)": "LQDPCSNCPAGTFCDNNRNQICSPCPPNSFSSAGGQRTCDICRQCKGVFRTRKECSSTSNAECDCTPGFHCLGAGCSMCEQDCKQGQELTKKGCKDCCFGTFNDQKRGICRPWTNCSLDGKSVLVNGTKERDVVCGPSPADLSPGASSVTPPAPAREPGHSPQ", "assay": "ELISA, coated 4-1BB-his, scFv clone supernatant"}, "[2]": {"target": "T1, Human 4-1BB/TNFRSF9 Protein, His Tag (ACRO Biosystems) (human, UniProt Q07011 24-186)", "T1 construct": "Bought from ACRO Biosystems; also called 4-1BB-his; not shown: His tag", "assay": "ELISA, coated Human 4-1BB His Tag 1 ug/ml, antibody from 10 ug/ml in two-fold dilutions"}},
  "data": [
    {"binder": "GT1C8 (scFv克隆, 初筛离心上清) (scFv, V domains shown) VH: QMQLQESGPSLVKPSQTLSLTCSVTGDSITSGYWTWIRKFPGNRLEYMGFKSYSGSTYYNPSLKSRISITRDTSKNQYYLQLNSVTTEDTATYYCARSLLWLGAMDYWGQGTSVTVSS VL: DIVMTQSHKFMSTSVGDRVSITCKASQDVGTAVAWYQQKPGQSPKLLIYWASTRHTGVPDRFTGSGSGTDFTLTISNVQSEDLADYFCQQYSSYPYTFGGGTKLEMKR", "values": [
      {"measurement": "OD450", "setting": "[1]", "value": 1.12}
    ]},
    {"binder": "GT1C8 huIgG1型抗体 (antibody, V domains shown, GT1C8 is the only antibody described, but the name GT1C8 is never tied to these numbers in words; also called GT1C8的huIgG1抗体; GT1C8克隆hIgG1形式抗体) VH: QMQLQESGPSLVKPSQTLSLTCSVTGDSITSGYWTWIRKFPGNRLEYMGFKSYSGSTYYNPSLKSRISITRDTSKNQYYLQLNSVTTEDTATYYCARSLLWLGAMDYWGQGTSVTVSS VL: DIVMTQSHKFMSTSVGDRVSITCKASQDVGTAVAWYQQKPGQSPKLLIYWASTRHTGVPDRFTGSGSGTDFTLTISNVQSEDLADYFCQQYSSYPYTFGGGTKLEMKR", "values": [
      {"measurement": "EC50", "setting": "[2]", "value": 0.102, "unit": "µg/mL"}
    ]}
  ]
}
